Positions count from the first letter of the chain named.
B1: mouse:canine 11E12 chimera (antibody)
heavy: QVQLQQSGAELVKPGASVKLSCKASGYTFKYYDINWVRQRPEQGLEWIGWIFPGDGGTKYNETFKGKATLTTDKSSSTAYMQLSRLTSEDSAVYFCARGGTSVIRDAMDYWGQGTSVTVSSASTTAPSVFPLAPSCGSTSGSTVALACLVSGYFPEPVTVSWNSGSLTSGVHTFPSVLQSSGLYSLSSMVTVPSSRWPSETFTCNVAHPASKTKVDKPVPKRENGRVPRPPDCPKCPAPEMLGGPSVFIFPPKPKDTLLIARTPEVTCVVVDLDPEDPEVQISWFVDGKQMQTAKTQPREEQFNGTYRVVSVLPIGHQDWLKGKQFTCKVNNKALPSPIERTISKARGQAHQPSVYVLPPSREELSKNTVSLTCLIKDFFPPDIDVEWQSNGQQEPESKYRTTPPQLDEDGSYFLYSKLSVDKSRWQRGDTFICAVMHEALHNHYTQESLSHSPGK
light: DIVLTQSPASLAVSLGQRATISCRASESVDNYGISFMHWYQQKPGQPPKLLIYRASNLESGIPARFSGSGSRTDFTLTINPVETDDVATYYCQQSNKDPLTFGAGTKLELKRNDAQPAVYLFQPSPDQLHTGSASVVCLLNSFYPKDINVKWKVDGVIQDTGIQESVTEQDKDSTYSLSSTLTMSSTEYLSHELYSCEITHKSLPSTLIKSFQRSEC
notes: Mouse variable regions on canine IgG constant regions; made in HEK 293 cells; also called canine chimeric form of 11E12
B2: A13 (antibody, V domains shown)
VH: QVLLVQSGAEVRTPGASVKIFCKASGYSFTSYTIHWLRQAPAQGLEWMGNINPTSGYTENNQRFKDRLTLTADTSTNTAYMELSSLRSADTAMYYCARWGFKYDGEWSFDVWGAGTTVTVSS
VL: EIQMTQSPSSLSASPGDRVTITCRASQGISIALSWYQQKPGNIPKVLINKASNLHIGVPSRFSGSGSGTDFTLTISSLEPEDAATYYCLQSQTYPLTFGGGTKLEIK
B3: A28 (antibody, V domains shown)
VH: B2 VH
VL: B2 VL with A32W, T97A
B4: A27 (antibody, V domains shown)
VH: B2 VH
VL: B2 VL with A32W, L96A
B5: A16 (antibody, V domains shown)
VH: B2 VH
VL: B2 VL with A32W, S52A
B6: A23 (antibody, V domains shown)
VH: B2 VH
VL: B2 VL with A32W, Q92A
B7: A24 (antibody, V domains shown)
VH: B2 VH
VL: B2 VL with A32W, T93A
B8: A15 (antibody, V domains shown)
VH: B2 VH
VL: B2 VL with A32W, K50A
B9: A26 (antibody, V domains shown)
VH: B2 VH
VL: B2 VL with A32W, P95A
B10: A25 (antibody, V domains shown)
VH: B2 VH
VL: B2 VL with A32W, Y94A
B11: A18 (antibody, V domains shown)
VH: B2 VH
VL: B2 VL with A32W, L54A
B12: A20 (antibody, V domains shown)
VH: B2 VH
VL: B2 VL with A32W, I56A
B13: ZIL171 (recombinant fully canine antibody) (antibody, V domains shown)
VH: EVQLVESGGDLVKPAGSLRLSCVASGFTFRTYVMNWVRQAPGKGLQWVASINGGGSSPTYADAVRGRFTVSRDNAQNSLFLQMNSLRAEDTAIYFCVVSMVGPFDYWGHGTLVTVSS
VL: SSVLTQPPSVSVSLGQTATISCSGKSLSYYYAQWFQQKAGQAPVLVIYKDTERPSGIPDRFSGSSSGNTHTLTISGARAEDEADYYCESAVSSDTIVFGGGTHLTVLR
notes: also called CAN-ZIL171
B14: Feline 11E12 1.1 FW2 (antibody, V domains shown)
VH: QVLLVQSGAEVKKPGASVKIFCKASGYSFTYYDINWLRQAPEQGLEWMGWIFPGDGGTKYNETFKGRLTLTADTSTNTVYMELSSLRSADTAMYYCARGGTSVIRDAMDYWGQGALVTVSS
VL: EIQMTQSPSSLSASPGDRVTITCRASESVDNYGISFMHWYQQKPGQPPKLLIYRASNLESGVPSRFSGSGSGTDFTLTISSLEPEDAATYYCQQSNKDPLTFGQGT
notes: Feline 11E12 VL1 with the mouse FW2; Feline heavy and kappa constant regions

Assays:
[1] = target: T1, wildtype feline IL-31 protein (Feline_IL31_wildtype) (feline); assay: cell-based or functional assay
T1 chain: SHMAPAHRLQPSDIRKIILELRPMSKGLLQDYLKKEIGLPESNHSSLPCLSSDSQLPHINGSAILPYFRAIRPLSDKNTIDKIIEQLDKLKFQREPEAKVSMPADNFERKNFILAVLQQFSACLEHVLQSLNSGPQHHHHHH

[2] = target: T2, canine IL-31 protein (Canine_IL31) (canine); assay: SPR (Biacore), IL-31 on chip, 1:1 fit
T2 chain: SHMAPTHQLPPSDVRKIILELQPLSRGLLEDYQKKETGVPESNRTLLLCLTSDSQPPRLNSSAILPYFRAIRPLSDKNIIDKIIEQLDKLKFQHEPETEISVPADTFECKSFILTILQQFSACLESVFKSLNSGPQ

[3] = target: T1, wildtype feline IL-31 protein …; assay: SPR (Biacore), IL-31 on chip, 1:1 fit
Method: The affinity with which candidate mAbs bind canine and feline IL-31 was determined using surface plasmon resonance (SPR) on a Biacore system (Biocore Life Sciences (GE Healthcare), Uppsala, Sweden). To avoid affinity differences associated with differential surface preparation that can occur when immobilizing antibodies to surfaces; a strategy was employed where IL-31 was directly conjugated to the surface. Immobilization was obtained by amine coupling 5 μg/mL IL-31 using N-hydroxysuccinimide (NHS)/1-Ethyl-3-(3-dimethylaminopropyl) carbodiimide (EDC) chemistry. Chips were quenched with ethanolamine and the affinity with which all candidate mAbs bound to the immobilized IL-31 was evaluated. All curves were fit to a 1:1 model. […] Results for affinity measurements are described herein.

[4] = target: T1, wildtype feline IL-31 protein …; assay: cell-based or functional assay
[5] = target: T1, wildtype feline IL-31 protein …; assay: Biacore, feline IL-31 chip, mAb 100 nM, share of points within parent mean +/-3 SD; set-up: key: % of mutant data points within parent mAb mean ±3 SD
Text: The region of an antibody responsible for antigen recognition represents the paratope. A paratope is created by a combination of amino acids in the complementarity determining regions (CDRs) of both the heavy and light chain variable regions. The binding between antibody and antigen is often mediated by side chains of CDR residues with side chains or carbohydrate moieties of the antigen. To help define critical side chains involved in antibody recognition alanine scanning mutagenesis was performed on each CDR residue in both the heavy and light chain. These mutants were then individually tested for the ability to bind feline IL-31 using the biacore and evaluated for inhibition of IL-31-mediated signaling in the FCWF-4 cell based assay.
The mean response unit of four replicates of the parent mAb+/−3 standard deviations was used to generate parameters to define a threshold of response units comprising both the on- and off-rates antibody binding (FIG. 22). The percentage of data points for each mutant fell within this threshold was then used to define a “% similarity score” (FIG. 23).

[6] = target: T3, equine IL-31 protein (Equine_IL31) (equine); assay: SPR (Biacore), IL-31 surface, single antibody concentration
T3 construct: Recombinant equine IL-31
T3 chain: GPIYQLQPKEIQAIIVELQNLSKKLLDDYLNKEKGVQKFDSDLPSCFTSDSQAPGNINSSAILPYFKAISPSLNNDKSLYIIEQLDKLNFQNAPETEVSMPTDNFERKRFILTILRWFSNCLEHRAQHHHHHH
Method: For the indirect ELISA method, antibody binding to wildtype and feline IL-31 15H05 mutant proteins was assessed. All nine canine monoclonal antibodies (ZIL1, ZIL8, ZIL8, ZIL11, ZIL69, ZIL94, ZIL154, ZIL159, and ZIL171) were capable of binding to wildtype feline IL-31 and binding was impacted by mutations in the mAb 15H05 epitope region confirming the correct binding phenotype determined during the initial screening used to identify them. In comparison, the 11E12 antibody bound to the wild-type feline IL-31 and its binding was not impacted by the mutations in the 15H05 epitope region as evidenced by the data in FIG. 4. To confirm binding, biacore analysis was performed using canine, feline, equine, human, feline 15H05 mutant, and feline 11E12 mutant IL-31 proteins as surfaces and a single test concentration of antibody. Similar to ELISA observations, all antibodies tested bound to wildtype feline IL-31. In agreement with the data described above in this section, mouse antibodies 11E12 and 15H05 both bound to canine and feline IL-31 surfaces. Three additional antibodies where shown to have this dual binding property, ZIL69 (partial canine binding), ZIL94, and ZIL159. From this group of nine fully canine antibodies, only ZIL1 and ZIL9 cross-reacted with equine IL-31. Of note, antibody 15H05 was the only one of all assayed herein that bound to canine, feline, and equine IL-31 indicating some level of epitope conservation across the three species. In contrast, none of the antibodies described herein bound to human IL-31. Additional biacore surfaces were used to verify ELISA observations showing differential binding of antibodies to wildtype feline IL-31 and two proteins with mutations in the 15H05 (15H05 mutant) or 11E12 (11E12 mutant) epitopes.

Binder	% Inhibition Relative to Parent (pSTAT, FCWF-4 cells) [4] [%]	Binding Similarity score [5]	further results
B1	–	–	IC50, inhibition of feline IL-31-induced STAT3 phosphorylation, feline FCWF4 cells [1]: 1.15 µg/mL; Kd [2]: 0.000826 nM; koff [2]: 6.55e-07 s⁻¹; kon [2]: 793000 M⁻¹ s⁻¹; Kd [3]: 0.248 nM; koff [3]: 0.000108 s⁻¹; kon [3]: 437000 M⁻¹ s⁻¹
B2	4.4	2.4	–
B3	59.7	42.2	–
B4	7.2	11.7	–
B5	69.3	58	–
B6	29.2	64.8	–
B7	56.7	100	–
B8	34.1	11.6	–
B9	43.7	20.9	–
B10	1.3	4.4	–
B11	49.4	100	–
B12	29	31.3	–
B13	–	–	binding result [6]: no binding
B14	–	–	IC50, inhibition of feline IL-31-induced STAT3 phosphorylation, canine DH82 cells [1]: 5.66 µg/mL; IC50, inhibition of feline IL-31-induced STAT3 phosphorylation, feline FCWF4 cells [1]: 4.38 µg/mL; koff [2]: 0.000318 s⁻¹; kon [2]: 45200 M⁻¹ s⁻¹; Kd [3]: 0.75 nM; koff [3]: 0.000639 s⁻¹; kon [3]: 852000 M⁻¹ s⁻¹
